Reference: PMC6420462

Biological target: T1, GluK5-WT (kainate receptor subunit GluK5) (UniProt Q16478)
T1 sequence: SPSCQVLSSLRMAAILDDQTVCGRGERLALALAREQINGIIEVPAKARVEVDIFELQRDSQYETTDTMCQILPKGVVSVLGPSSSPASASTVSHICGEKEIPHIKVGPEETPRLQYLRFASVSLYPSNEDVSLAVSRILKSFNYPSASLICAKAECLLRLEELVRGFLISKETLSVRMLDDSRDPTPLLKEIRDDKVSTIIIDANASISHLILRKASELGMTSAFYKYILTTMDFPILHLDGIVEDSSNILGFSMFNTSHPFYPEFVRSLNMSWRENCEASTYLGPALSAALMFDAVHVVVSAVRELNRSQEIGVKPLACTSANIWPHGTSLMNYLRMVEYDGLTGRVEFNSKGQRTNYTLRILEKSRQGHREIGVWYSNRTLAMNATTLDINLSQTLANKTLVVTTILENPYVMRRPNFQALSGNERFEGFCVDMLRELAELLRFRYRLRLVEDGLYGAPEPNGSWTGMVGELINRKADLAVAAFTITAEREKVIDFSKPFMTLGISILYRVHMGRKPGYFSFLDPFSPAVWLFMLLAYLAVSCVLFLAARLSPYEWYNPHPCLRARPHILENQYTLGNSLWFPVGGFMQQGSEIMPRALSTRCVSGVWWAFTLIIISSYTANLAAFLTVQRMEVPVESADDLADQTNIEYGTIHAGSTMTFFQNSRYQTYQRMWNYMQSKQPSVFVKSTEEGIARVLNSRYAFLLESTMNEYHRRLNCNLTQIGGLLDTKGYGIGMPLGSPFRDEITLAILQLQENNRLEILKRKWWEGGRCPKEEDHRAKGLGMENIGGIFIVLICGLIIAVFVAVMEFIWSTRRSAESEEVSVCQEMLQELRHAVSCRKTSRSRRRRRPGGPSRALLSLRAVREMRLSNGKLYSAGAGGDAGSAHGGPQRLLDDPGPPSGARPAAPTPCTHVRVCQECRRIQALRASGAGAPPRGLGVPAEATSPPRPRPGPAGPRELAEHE

With “GluK2-WT (human GluK2a(Q) kainate receptor subunit) (from UniProt Q13002 32-908)” the cell surface (biotinylated) GluK2, % of total, on co-expression with GluK5-WT in HEK293 cells was 28% and the cell surface (biotinylated) GluK5, % of total, on co-expression with GluK2-WT in HEK293 cells (GluK5 alone not detectable on the surface) was 27%.
“GluK2-A487T (from UniProt Q13002 32-908) (receptor)” showed a cell surface (biotinylated) GluK2-A487T, % of total, on co-expression with GluK5-WT in HEK293 cells of 18% and a cell surface (biotinylated) GluK5, % of total, on co-expression with GluK2-A487T in HEK293 cells (GluK5 alone not detectable on the surface) of 20%.
Substance “GluK2-T659V (from UniProt Q13002 32-908) (receptor)” has a cell surface (biotinylated) GluK2-T659V, % of total, on co-expression with GluK5-WT in HEK293 cells of 28%, a cell surface (biotinylated) GluK5, % of total, on co-expression with GluK2-T659V in HEK293 cells (GluK5 alone not detectable on the surface) of 26% and an increase in cell surface GluK2-T659V on co-expression with GluK5-WT against the homomeric subunit of 7 fold.
“GluK2-S689N/N690S (from UniProt Q13002 32-908) (receptor)” was tested, and the cell surface (biotinylated) GluK2-S689N/N690S, % of total, on co-expression with GluK5-WT in HEK293 cells was 12% and the cell surface (biotinylated) GluK5, % of total, on co-expression with GluK2-S689N/N690S in HEK293 cells (GluK5 alone not detectable on the surface) was 10%.
“GluK2-A487L (from UniProt Q13002 32-908) (receptor)” was tested, and the cell surface (biotinylated) GluK2-A487L, % of total, on co-expression with GluK5-WT in HEK293 cells was 14%, the cell surface (biotinylated) GluK5, % of total, on co-expression with GluK2-A487L in HEK293 cells (GluK5 alone not detectable on the surface) was 14% and the increase in cell surface GluK2-A487L on co-expression with GluK5-WT against the homomeric subunit was 5 fold.
